Laboratory results published in PMC12006399, “RNase1-driven ALK-activation is an oncogenic driver and therapeutic target in non-small cell lung cancer” (Signal Transduction and Targeted Therapy, 2025).

What was measured:
[1] = target: ALK (Homo sapiens) (UniProt Q9UM73); settings: cited from earlier work
[2] = target: EphA4 (Homo sapiens) (UniProt P54764); settings: cited from earlier work
[3] = target: T1, endogenous wild-type ALK in H1299 human lung cancer cells (human (endogenous in H1299), UniProt Q9UM73 19-1620); test: ELISA; ALK captured from H1299 lysate on plate-bound ALK antibody (3 µg/ml); recombinant RNase1 at different concentrations in lysis buffer, overnight at 4 °C; streptavidin-HRP, TMB, OD 450 nm; Kd by GraphPad Prism; settings: one partner purified
T1 construct: ALK receptor tyrosine kinase, wild type, endogenous in H1299 human lung cancer cells; also called WT ALK; source: endogenous, H1299 lysate; endogenous, in H1299 cells
T1 sequence (Q9UM73 19-1620): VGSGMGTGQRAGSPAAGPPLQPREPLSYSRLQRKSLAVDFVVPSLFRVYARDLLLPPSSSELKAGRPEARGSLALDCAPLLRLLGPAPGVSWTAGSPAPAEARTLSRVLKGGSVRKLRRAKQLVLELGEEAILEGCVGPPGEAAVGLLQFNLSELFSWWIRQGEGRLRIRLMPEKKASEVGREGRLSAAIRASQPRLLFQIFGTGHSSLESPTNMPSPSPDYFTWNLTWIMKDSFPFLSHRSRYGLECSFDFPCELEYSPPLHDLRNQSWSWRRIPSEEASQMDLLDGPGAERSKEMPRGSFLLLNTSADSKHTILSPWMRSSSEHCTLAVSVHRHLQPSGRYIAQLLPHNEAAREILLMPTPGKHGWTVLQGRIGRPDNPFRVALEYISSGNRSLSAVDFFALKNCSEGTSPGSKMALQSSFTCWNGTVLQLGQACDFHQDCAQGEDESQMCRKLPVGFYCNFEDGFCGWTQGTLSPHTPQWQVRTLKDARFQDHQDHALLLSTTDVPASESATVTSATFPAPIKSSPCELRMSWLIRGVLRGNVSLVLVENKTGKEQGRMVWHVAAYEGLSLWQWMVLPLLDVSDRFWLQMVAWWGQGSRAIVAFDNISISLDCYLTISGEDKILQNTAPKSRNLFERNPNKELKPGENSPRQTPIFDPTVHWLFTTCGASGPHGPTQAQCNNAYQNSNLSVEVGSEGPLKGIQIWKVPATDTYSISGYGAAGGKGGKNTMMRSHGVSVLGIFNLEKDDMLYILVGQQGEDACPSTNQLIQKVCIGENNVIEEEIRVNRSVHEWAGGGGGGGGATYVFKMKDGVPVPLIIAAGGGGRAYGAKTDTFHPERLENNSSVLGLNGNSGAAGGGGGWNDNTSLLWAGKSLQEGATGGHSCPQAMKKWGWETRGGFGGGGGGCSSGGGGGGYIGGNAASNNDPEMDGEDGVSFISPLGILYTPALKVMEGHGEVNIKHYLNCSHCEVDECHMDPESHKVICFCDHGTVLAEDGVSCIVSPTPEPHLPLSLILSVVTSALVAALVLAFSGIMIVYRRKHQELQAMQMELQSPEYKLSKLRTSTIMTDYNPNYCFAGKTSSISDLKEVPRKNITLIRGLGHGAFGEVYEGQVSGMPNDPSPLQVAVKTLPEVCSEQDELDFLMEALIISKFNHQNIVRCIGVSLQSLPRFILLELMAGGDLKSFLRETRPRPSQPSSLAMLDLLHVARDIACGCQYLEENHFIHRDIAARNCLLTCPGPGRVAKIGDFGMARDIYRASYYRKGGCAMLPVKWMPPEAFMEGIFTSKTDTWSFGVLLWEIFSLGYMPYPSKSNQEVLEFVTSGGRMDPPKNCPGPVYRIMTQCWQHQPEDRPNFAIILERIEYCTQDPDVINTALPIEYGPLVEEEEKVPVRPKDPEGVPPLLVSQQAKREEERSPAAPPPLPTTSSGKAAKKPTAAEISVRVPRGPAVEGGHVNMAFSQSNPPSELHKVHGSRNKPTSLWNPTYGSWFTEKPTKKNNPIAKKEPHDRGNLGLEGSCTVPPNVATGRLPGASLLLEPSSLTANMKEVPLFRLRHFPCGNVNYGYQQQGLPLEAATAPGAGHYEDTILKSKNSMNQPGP

Sequence of ALK (Homo sapiens) (Q9UM73 19-1038): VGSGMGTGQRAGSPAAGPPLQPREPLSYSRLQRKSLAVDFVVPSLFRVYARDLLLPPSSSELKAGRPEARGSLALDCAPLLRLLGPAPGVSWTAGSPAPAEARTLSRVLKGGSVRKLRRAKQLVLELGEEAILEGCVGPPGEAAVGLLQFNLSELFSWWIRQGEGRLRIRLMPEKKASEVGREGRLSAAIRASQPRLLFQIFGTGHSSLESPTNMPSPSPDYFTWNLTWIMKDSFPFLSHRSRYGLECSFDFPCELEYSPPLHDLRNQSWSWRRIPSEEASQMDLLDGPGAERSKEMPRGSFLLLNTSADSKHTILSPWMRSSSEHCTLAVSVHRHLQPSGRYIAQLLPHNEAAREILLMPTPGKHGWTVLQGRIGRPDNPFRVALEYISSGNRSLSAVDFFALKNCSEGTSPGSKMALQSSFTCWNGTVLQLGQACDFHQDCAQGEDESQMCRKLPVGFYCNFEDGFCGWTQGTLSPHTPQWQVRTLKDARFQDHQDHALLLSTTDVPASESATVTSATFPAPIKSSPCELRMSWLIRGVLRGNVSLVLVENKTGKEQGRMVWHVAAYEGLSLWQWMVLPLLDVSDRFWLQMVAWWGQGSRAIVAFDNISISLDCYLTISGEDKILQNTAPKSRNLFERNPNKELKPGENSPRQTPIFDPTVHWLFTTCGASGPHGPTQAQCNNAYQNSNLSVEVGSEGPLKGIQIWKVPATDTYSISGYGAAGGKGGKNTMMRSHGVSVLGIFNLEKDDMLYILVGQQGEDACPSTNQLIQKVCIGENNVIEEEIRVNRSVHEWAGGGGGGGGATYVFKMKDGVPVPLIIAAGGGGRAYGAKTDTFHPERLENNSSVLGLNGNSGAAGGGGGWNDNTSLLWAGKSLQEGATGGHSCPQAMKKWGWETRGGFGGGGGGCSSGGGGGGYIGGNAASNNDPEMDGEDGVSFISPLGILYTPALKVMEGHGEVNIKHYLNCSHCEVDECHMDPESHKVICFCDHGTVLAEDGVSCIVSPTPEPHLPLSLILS
Sequence of EphA4 (Homo sapiens) (P54764 20-547): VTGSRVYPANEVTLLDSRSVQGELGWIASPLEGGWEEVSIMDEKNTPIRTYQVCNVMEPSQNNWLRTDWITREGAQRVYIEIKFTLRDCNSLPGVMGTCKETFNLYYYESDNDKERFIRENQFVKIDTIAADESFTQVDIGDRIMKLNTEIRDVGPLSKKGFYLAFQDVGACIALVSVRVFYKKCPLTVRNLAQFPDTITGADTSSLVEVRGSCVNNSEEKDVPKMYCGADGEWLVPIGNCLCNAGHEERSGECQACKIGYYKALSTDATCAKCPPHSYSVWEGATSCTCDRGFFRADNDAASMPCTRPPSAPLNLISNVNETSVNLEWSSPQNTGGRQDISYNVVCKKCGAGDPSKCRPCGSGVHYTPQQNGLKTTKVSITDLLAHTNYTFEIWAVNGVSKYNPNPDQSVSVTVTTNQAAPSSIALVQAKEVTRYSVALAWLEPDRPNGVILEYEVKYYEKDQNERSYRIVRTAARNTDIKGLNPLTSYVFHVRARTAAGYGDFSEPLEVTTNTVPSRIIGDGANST

In the case of ALKAL2 (from UniProt Q6UX46), the Kd [1] is listed as 40 nM.

In the case of RNase1 (from UniProt P07998), the Kd [2] is listed as 92.4 nM.

B1: recombinantly purified 6x N-terminal His-tagged RNase1 (ligand, human, UniProt P07998 29-156, looked up)
chain: KESRAKKFQRQHMDSDSSPSSSSTYCNQMMRRRNMTQGRCKPVNTFVHEPLVDVQNVCFQEKVTCKNGQGNCYKSNSSMHITDCRLTNGSRYPNCAYRTSPKERHIIVACEGSPYVPVHFDASVEDST
notes: human secretory ribonuclease 1 (RNase1); cDNA cloned into the prokaryotic vector PSJ3 with N-terminal 6His tag; a bacterial construct is likely to lack the signal peptide (surmise); also called R1; human secretory ribonuclease 1; source: E. coli BL21, purified (HisTrap column); not shown: His6, N-terminal, kept
In the case of B1, the Kd [3] is reported as 43 nM.
